Data as given in IntAct's records for PubMed 16864798.

Molecular target: plk1_human PLK1 (UniProt P53350)
Sequence (P53350 whole entry): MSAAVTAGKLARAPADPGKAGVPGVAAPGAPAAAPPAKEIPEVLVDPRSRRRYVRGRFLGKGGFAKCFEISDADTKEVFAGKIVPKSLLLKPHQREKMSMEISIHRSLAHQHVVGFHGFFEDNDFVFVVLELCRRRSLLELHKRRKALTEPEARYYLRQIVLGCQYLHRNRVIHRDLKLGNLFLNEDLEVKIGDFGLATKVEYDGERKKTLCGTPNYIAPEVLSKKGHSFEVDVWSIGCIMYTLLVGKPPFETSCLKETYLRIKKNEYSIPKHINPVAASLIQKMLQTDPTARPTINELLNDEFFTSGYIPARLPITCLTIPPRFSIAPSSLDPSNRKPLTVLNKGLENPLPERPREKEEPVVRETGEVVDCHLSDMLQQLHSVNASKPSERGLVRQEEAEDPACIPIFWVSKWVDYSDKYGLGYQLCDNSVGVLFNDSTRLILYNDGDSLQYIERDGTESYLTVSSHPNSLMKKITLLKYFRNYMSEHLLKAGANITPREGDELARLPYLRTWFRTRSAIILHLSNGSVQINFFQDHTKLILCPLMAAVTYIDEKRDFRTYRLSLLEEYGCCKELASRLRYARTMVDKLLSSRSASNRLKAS

In the case of “RecQ-like DNA helicase BLM (Homo sapiens), P54132 S144A;S304A;S1290A;S1296A”, the “effect of a mutation on the interaction” value is reported as “disrupting interaction strength”.
